Measurements as given in patent publication US12559537B2, “Nucleic acid encoding NKP30 receptor targeted therapeutics” (THE TRUSTEES OF DARTMOUTH COLLEGE, priority 2011, dated 2026).

System: K562 target cells
Assay: Cytotoxicity-blocking with soluble NKp30 (LDH release)
Format: cell-based, human
Conditions: 10 μg/ml, K562 targets, E:T 5:1, 5-h LDH release
Protocol: FIG. 7C further illustrates that lysis was mediated by the chimeric NKp30 constructs. […] Effector T cells modified with wtNKp30 or NKp30-CD28-3ζ were cocultured with target cells K562 in the presence of 10 μg/ml NKp30-mIgG2a or mouse IgG at a ratio of 5:1; the percentage of specific lysis was determined after a 5-h LDH-release assay. The data are presented as mean+/−SD and are representative of two independent experiments.
The cytotoxic activity of chimeric NKp30-modified human T cells against various tumor cell lines was determined. […] To confirm that chimeric NKp30-mediated killing is dependent on the interactions between NKp30 and its ligands, soluble NKp30 (NKp30-mIgG2a) was incubated with K562 target cells prior to the coculture with T cells.
Cytotoxicity of T cells against target cells was determined by an LDHrelease assay using the CytoTox 96 Non-Radioactive Cytotoxicity Assay kit (Promega, Madison, WI). Specific lysis was determined using the following equation: percentage of specific lysis=[(experimental−effector spontaneous−target spontaneous)/(target maximum−target spontaneous)]×100. In the cytotoxicity-blocking experiments, K562 target cells were preincubated with a soluble NKp30 receptor, NKp30-mIgG2a ([…]), for 30 min before coculture with T cells in an LDH-release assay.

Substance: NKp30-mIgG2a: soluble fusion protein: extracellular portion of human NKp30 fused to the mouse IgG2a hinge-CH2-CH3 portion
- NKp30-28-3ζ-bearing T cell-mediated cytotoxicity in presence of soluble NKp30: significantly reduced
